Data reported in article PMC6504876, “TFIIE orchestrates the recruitment of the TFIIH kinase module at promoter before release during transcription” (Nature Communications, 2019).
Positions count from the first letter of the chain named. In names and notes the source's numbering stands.

B1: His-TFIIEβ/WT (natural protein, UniProt P29084 1-291, looked up)
chain: MDPSLLRERELFKKRALSTPVVEKRSASSESSSSSSKKKKTKVEHGGSSGSKQNSDHSNGSFNLKALSGSSGYKFGVLAKIVNYMKTRHQRGDTHPLTLDEILDETQHLDIGLKQKQWLMTEALVNNPKIEVIDGKYAFKPKYNVRDKKALLRLLDQHDQRGLGGILLEDIEEALPNSQKAVKALGDQILFVNRPDKKKILFFNDKSCQFSVDEEFQKLWRSVTVDSMDEEKIEEYLKRQGISSMQESGPKKVAPIQRRKKPASQKKRRFKTHNEHLAGVLKDYSDITSSK
notes: TFIIEβ, the β subunit of the general transcription factor TFIIE, encoded by GTF2E2; also called rIIEβ/WT; the β subunit of rIIEαβ/WT; source: E. coli, purified; alone or co-produced with rIIEα/WT
B2: His-TFIIEβ/A150P (natural protein, UniProt P29084 1-291, looked up)
chain: B1 chain with A150P
notes: TFIIEβ with the trichothiodystrophy patient mutation c.448G>C [p.Ala150Pro]; The mutation is found in TTD patients; also called rIIEβ/A150P; the β subunit of rIIEαβ/A150P; source: E. coli, co-produced with rIIEα/WT, purified
B3: His-TFIIEβ/D187Y (natural protein, UniProt P29084 1-291, looked up)
chain: B1 chain with D187Y
notes: TFIIEβ with the trichothiodystrophy patient mutation D187Y; The mutation is found in TTD patients; also called rIIEβ/D187Y; the β subunit of rIIEαβ/D187Y; source: E. coli, co-produced with rIIEα/WT, purified
B4: CDK7 (natural protein, UniProt P50613 1-346, looked up)
chain: MALDVKSRAKRYEKLDFLGEGQFATVYKARDKNTNQIVAIKKIKLGHRSEAKDGINRTALREIKLLQELSHPNIIGLLDAFGHKSNISLVFDFMETDLEVIIKDNSLVLTPSHIKAYMLMTLQGLEYLHQHWILHRDLKPNNLLLDENGVLKLADFGLAKSFGSPNRAYTHQVVTRWYRAPELLFGARMYGVGVDMWAVGCILAELLLRVPFLPGDSDLDQLTRIFETLGTPTEEQWPDMCSLPDYVTFKSFPGIPLHHIFSAAGDDLLDLIQGLFLFNPCARITATQALKMKYFSNRPGPTPGCQLPRPNCPVETLKEQSNPALAIKRKRTEALEQGGLPKKLIF
notes: CDK7 kinase, CAK subunit of TFIIH; It stood in the assay together with the other TFIIH subunits; also called CDK7 kinase of the CAK; source: Sf21 insect cells infected with baculoviruses for all TFIIH subunits; in whole cell extract, and purified within rIIH through Flag-XPD
B5: Flag-TFIIEα (natural protein, UniProt P29083 1-439, looked up)
chain: MADPDVLTEVPAALKRLAKYVIRGFYGIEHALALDILIRNSCVKEEDMLELLKFDRKQLRSVLNNLKGDKFIKCRMRVETAADGKTTRHNYYFINYRTLVNVVKYKLDHMRRRIETDERDSTNRASFKCPVCSSTFTDLEANQLFDPMTGTFRCTFCHTEVEEDESAMPKKDARTLLARFNEQIEPIYALLRETEDVNLAYEILEPEPTEIPALKQSKDHAATTAGAASLAGGHHREAWATKGPSYEDLYTQNVVINMDDQEDLHRASLEGKSAKERPIWLRESTVQGAYGSEDMKEGGIDMDAFQEREEGHAGPDDNEEVMRALLIHEKKTSSAMAGSVGAAAPVTAANGSDSESETSESDDDSPPRPAAVAVHKREEDEEEDDEFEEVADDPIVMVAGRPFSYSEVSQRPELVAQMTPEEKEAYIAMGQRMFEDLFE
notes: TFIIEα, the α subunit of the general transcription factor TFIIE; The methods name an anti-Flag-Tag antibody among those used for the co-immunoprecipitations; also called rIIEα/WT; the α subunit of rIIEαβ; source: E. coli, purified; alone or co-produced with rIIEβ

Key:
Details in all cases: both partners purified
[1] = target: T1, recombinant TFIIH (rIIH/WT) (UniProt P18074 1-760; P19447 1-782; P32780 1-548; Q92759 1-462; Q13888 1-395; Q13889 …); assay: co-IP; rIIH/WT immunoprecipitated with anti-p62 (protein G magnetic beads) and incubated with rIIEαβ (α and β added together as the co-produced rIIE), washes at 150 and 500 mM KCl; blots with anti-XPB, anti-IIEα, anti-IIEβ (Fig. 3b)
T1 construct: XPD subunit of TFIIH; XPB subunit of TFIIH; p62 subunit of TFIIH; p52 subunit of TFIIH; p44 subunit of TFIIH; p34 subunit of TFIIH; p8 (TTDA, TTD-A) subunit of TFIIH; cdk7 (CDK7 kinase), CAK subunit of TFIIH; cyclin H, CAK subunit of TFIIH; MAT1, CAK subunit of TFIIH; also called rIIH-XPD/WT; TFIIH/WT; copies: + + + + + + + + +

Flag-TFIIEα = target: B5; assay: co-IP; rIIEα/WT co-produced with rIIEβ/WT, /A150P or /D187Y, immunoprecipitated at 150 and 500 mM KCl; blots for IIEα and IIEβ (Fig. 3e)
Flag-XPD/WT = target: T2, Flag-XPD/WT (UniProt P18074 1-760); assay: co-IP; purified rIIH with XPD/WT, /R112H or /R722W immunoprecipitated with anti-XPD and incubated at 150 and 500 mM KCl; blots for XPB, XPD, CDK7 (Fig. 3f)
T2 construct: XPD subunit of TFIIH; also called the XPD subunit of rIIH/WT; source: Sf21 insect cells infected with baculoviruses for all TFIIH subunits

Binder: B1
- binding result [1]: binds
- binding result (Flag-TFIIEα): binds

Binder: B2
- binding result [1]: binds
- binding result (Flag-TFIIEα): binds

Binder: B3
- binding result [1]: binds
- binding result (Flag-TFIIEα): binds

Binder: B4
- binding result (Flag-XPD/WT): binds

Binder: B5
- binding result [1]: binds
